This passage reports apparent Vmax of pyrophosphorolysis of TEC U10 with 1 μM Nun (15.7 min^-1 without Nun); [PPi] 10 μM to 2.5 mM and apparent pyrophosphorolysis rate of TEC U10 after pre-incubation with 1 μM Nun (0.21 s^-1 without Nun); 2.5 mM PPi, 5 mM MgCl2 results from publication PMC6009650.

Experiment [1] concerns the target E. coli RNAP core enzyme carrying a hexahistidine-tagged β’ subunit (E. coli) (UniProt P0A8T7).
Experiment [2] has the same target. This is another data set of the same source.

Sequence of UniProt P0A8T7 (P0A8T7 whole entry, looked up): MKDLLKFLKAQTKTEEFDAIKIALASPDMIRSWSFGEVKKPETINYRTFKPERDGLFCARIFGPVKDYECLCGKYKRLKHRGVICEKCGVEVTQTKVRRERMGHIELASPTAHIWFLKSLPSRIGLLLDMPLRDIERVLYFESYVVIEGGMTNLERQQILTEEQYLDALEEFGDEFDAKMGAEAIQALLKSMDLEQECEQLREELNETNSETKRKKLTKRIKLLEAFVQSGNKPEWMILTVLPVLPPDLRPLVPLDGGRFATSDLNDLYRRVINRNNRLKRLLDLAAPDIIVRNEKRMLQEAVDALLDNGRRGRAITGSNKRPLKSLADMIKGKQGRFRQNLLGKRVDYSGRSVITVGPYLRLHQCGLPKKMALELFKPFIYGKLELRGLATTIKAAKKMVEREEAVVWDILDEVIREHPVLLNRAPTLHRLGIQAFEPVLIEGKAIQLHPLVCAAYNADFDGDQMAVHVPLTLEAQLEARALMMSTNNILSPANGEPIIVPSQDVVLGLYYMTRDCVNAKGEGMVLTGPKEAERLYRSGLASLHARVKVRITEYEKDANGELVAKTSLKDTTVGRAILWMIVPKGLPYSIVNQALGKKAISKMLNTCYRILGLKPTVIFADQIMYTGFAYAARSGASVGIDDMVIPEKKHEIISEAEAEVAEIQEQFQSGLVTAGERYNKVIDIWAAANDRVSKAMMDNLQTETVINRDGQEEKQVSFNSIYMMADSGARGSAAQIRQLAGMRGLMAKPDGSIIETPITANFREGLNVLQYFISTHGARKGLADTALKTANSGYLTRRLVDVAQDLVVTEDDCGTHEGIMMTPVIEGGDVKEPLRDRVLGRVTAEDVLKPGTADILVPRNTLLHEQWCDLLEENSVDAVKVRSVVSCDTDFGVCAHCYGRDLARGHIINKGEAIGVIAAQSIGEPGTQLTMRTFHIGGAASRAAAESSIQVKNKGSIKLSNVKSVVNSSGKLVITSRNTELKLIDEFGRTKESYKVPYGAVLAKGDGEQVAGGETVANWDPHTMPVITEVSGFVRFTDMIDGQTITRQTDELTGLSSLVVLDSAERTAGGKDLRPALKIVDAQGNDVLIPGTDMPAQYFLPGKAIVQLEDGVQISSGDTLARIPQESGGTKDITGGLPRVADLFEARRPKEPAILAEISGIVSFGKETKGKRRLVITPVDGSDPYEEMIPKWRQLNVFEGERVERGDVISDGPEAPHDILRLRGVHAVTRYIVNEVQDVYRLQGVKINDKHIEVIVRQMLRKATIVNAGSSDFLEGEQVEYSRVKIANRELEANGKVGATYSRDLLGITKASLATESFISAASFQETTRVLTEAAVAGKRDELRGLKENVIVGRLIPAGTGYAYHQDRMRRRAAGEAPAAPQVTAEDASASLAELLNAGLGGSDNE

B1: Nun protein of HK022 phage (natural protein)
chain: VKKTIYVNPDSGQNRKVSDRGLTSRDRRRIARWEKRIAYALKNGVTPGFNAIDDGPEYKINEDPMDKVDKALATPFPRDVEKIEDEKYEDVMHRVVNHAHQRNPNKKWS
As for B1, in experiment [1], the apparent Vmax of pyrophosphorolysis of TEC U10 with 1 μM Nun (15.7 min^-1 without Nun); [PPi] 10 μM to 2.5 mM was determined as 160 min⁻¹. For the same molecule, the apparent pyrophosphorolysis rate of TEC U10 after pre-incubation with 1 μM Nun (0.21 s^-1 without Nun); 2.5 mM PPi, 5 mM MgCl2 in experiment [2] stood at 2.4 s⁻¹.
